Assay results as given in patent US20090148861A1 (SALK INSTITUTE, published 2009).
Residue numbers refer to the chain shown, from its start. Names and notes keep the numbering of the source. Each block holds one molecule with its values, some of them ahead of it.

Experiments:
[1] = molecular target: GIRK2 L257A mutant channel; test: cell-based or functional assay
[2] = molecular target: GIRK2c channel, wild type; test: cell-based or functional assay
[3] = molecular target: GIRK2 L257Y mutant channel; test: cell-based or functional assay
[4] = molecular target: GIRK4* L252W mutant channel; test: cell-based or functional assay
[5] = molecular target: GIRK4* L252A mutant channel; test: cell-based or functional assay
[6] = molecular target: GIRK2 Y349W mutant channel; test: cell-based or functional assay
[7] = molecular target: GIRK2 L257W mutant channel; test: cell-based or functional assay
[8] = molecular target: GIRK4* L252Y mutant channel; test: cell-based or functional assay
[9] = molecular target: GIRK4 S143T mutant channel; test: cell-based or functional assay
[10] = molecular target: the molecule itself; test: S200 Sepharose size chromatography; self-association of the cytoplasmic domains into a tetramer
Method: (§1) Kir2.1 mutants were grown in Terrific Broth at 37 degrees C. to the OD600 of 0.6, then induced with 0.5 mM IPTG for 3 hours prior to harvesting. Cells were lysed in 0.5M NaCl, 20 mM Tris-HCl pH 8.5, 10% glycerol, 7 mM beta-mercaptoethanol, 0.1 mM PMSF, 10 mM imidazole and 0.5 mg lysozyme per 100 ml of lysate. The lysate was sonicated and spun at 94,000 G for 45 minutes. The supernatant was loaded on a 2 ml-packed nickel affinity column (Qiagen), washed with 5 ml of lysis buffer without PMSF, and then eluted with lysis buffer with 250 mM imidazole. Thrombin was added to the eluted fraction and it was dialyzed against the sizing column buffer, 150 mM NaCl, 5 mM Tris-HCl pH 8.5, 2 mM DTT. Kir2.1 was then purified by S200 Sepharose chromatography and concentrated to 10 mg/ml with 10 mM DTT. Kir2.1 proteins were loaded on a G4000PWXL HPLC column (TOSOH) equilibrated in 150 mM NaCl, 5 mM Tris-HCl 8.5, 2 mM DTT. Molecular weight (MW) of the tetramer complex was calculated by Minidawn static light scattering requiring the use of the extinction coefficient of the monomer. The extinction coefficient was derived from the primary sequence of the protein. […]

[11] = molecular target: the molecule itself; test: size chromatography of the cytoplasmic domains; homotetramer
Method: as §1

[12] = molecular target: the molecule itself; test: sizing column; self-association into a tetramer
Method: Kir2.1 mutants were grown in Terrific Broth at 37 degrees C. to the OD600 of 0.6, then induced with 0.5 mM IPTG for 3 hours prior to harvesting. Cells were lysed in 0.5M NaCl, 20 mM Tris-HCl pH 8.5, 10% glycerol, 7 mM beta-mercaptoethanol, 0.1 mM PMSF, 10 mM imidazole and 0.5 mg lysozyme per 100 ml of lysate. The lysate was sonicated and spun at 94,000 G for 45 minutes. The supernatant was loaded on a 2 ml-packed nickel affinity column (Qiagen), washed with 5 ml of lysis buffer without PMSF, and then eluted with lysis buffer with 250 mM imidazole. Thrombin was added to the eluted fraction and it was dialyzed against the sizing column buffer, 150 mM NaCl, 5 mM Tris-HCl pH 8.5, 2 mM DTT. Kir2.1 was then purified by S200 Sepharose chromatography and concentrated to 10 mg/ml with 10 mM DTT. Kir2.1 proteins were loaded on a G4000PWXL HPLC column (TOSOH) equilibrated in 150 mM NaCl, 5 mM Tris-HCl 8.5, 2 mM DTT. Molecular weight (MW) of the tetramer complex was calculated by Minidawn static light scattering requiring the use of the extinction coefficient of the monomer. The extinction coefficient was derived from the primary sequence of the protein.
To understand the nature of the mildly-aggregating R218Q, it was reasoned that changing the Thr309 to a positive charge residue would restore a polar interaction similar to the native one present in Kir2.1 between Arg218 and Thr309 (FIG. 2C). […]

[13] = molecular target: the molecule itself; test: X-ray crystal structure at 2.0 A; homotetramer

percent change from basal current on Carbachol, whole-cell patch clamp [1]: 36% | percent change from Ba++ sensitive basal current on 5 uM Carbachol (M2R co-transfected), whole-cell patch clamp [2]: 928% | percent change from basal current on Carbachol, whole-cell patch clamp [3]: 38% | Carb activation as percent of basal current, whole-cell patch clamp [4]: 23% | Carb activation as percent of basal current, whole-cell patch clamp [5]: 51% | percent change from basal current on Carbachol, whole-cell patch clamp [6]: 56% | percent change from basal current on Carbachol, whole-cell patch clamp [7]: 12% | Carb activation as percent of basal current, whole-cell patch clamp [8]: 110% | Carb activation as percent of basal current, whole-cell patch clamp (% of basal current) [9]: 231
Molecule: G-protein beta-gamma subunits

B1: Kir2.1L-E303K (other, mouse, UniProt P35561 44-64, looked up)
chain: RSRFVKKDGHCNVQFINVGEKRNETLVFSHNAVIAMRDGKLCLMWRVGNLRKSHLVEAHVRAQLLKSRITSEGEYIPLDQIDINVGFDSGIDRIFLVSPITIVHEIDEDSPLYDLSKQDIDNADFEIVVILEGMVKATAMTTQCRSSYLANEILWGHRYEPVLFEEKHYYKVDYSRFHKTYEVPNTPLCSARDLAEKKYILSNANSFCYENEVALTSKEEEEDSENGVPESTSTDSPPGIDLHNQASVPLEPRPLRRESEI
notes: range 44-64;range 189-428; Same construct as Kir2.1L; also called E303KL
binding result [10]: binds

B2: Kir2.1L-G300V (other, mouse, UniProt P35561 44-64, looked up)
chain: B1 chain with G133V, K136E
notes: range 44-64;range 189-428; Same construct as Kir2.1L; also called G300VL
binding result [11]: binds

B3: Kir2.1L-R218Q/T309R (other, mouse, UniProt P35561 44-64, looked up)
chain: B1 chain with R51Q, K136E, T142R
notes: range 44-64;range 189-428; Same construct as Kir2.1L; also called R218Q/T309RL
binding result [12]: binds

B4: Kir2.1L-R218Q/T309K (other, mouse, UniProt P35561 44-64, looked up)
chain: B1 chain with R51Q, K136E, T142K
notes: range 44-64;range 189-428; Same construct as Kir2.1L; also called R218Q/T309KL
binding result [12]: binds

B5: Kir2.1S-R218Q/T309K, N-terminal (44-64) fused to C-terminal (189-371) of mouse Kir2.1 (other, UniProt P35561 44-64, looked up)
chain: RSRFVKKDGHCNVQFINVGEKRNETLVFSHNAVIAMRDGKLCLMWRVGNLQKSHLVEAHVRAQLLKSRITSEGEYIPLDQIDINVGFDSGIDRIFLVSPITIVHEIDEDSPLYDLSKQDIDNADFEIVVILEGMVEATAMTKQCRSSYLANEILWGHRYEPVLFEEKHYYKVDYSRFHKTYEVPNTPLCSARDLAEKKYILSNA
notes: range 44-64;range 189-371; Crystallised form (2.0 A, space group C2, one tetramer per asymmetric unit); also called R218Q/T309KS; R218Q/T309Ks
binding result [13]: binds
